B1: Advillin, residues 785 to 819; numbered along this chain, O75366 (parent)
chain: LSEQDFVSVFGITRGQFAALPGWKQLQMKKEKGLF
B2: Receptor-interacting serine/threonine-protein kinase 2, residues 438 to 518; numbered along this chain, O43353 (parent)
chain: QWIQSKREDIVNQMTEACLNQSLDALLSRDLIMKEDYELVSTKPTRTSKVRQLLDTTDIQGEEFAKVIVQKLKDNKQMGLQ

Variants of: B1
Experiment: abundance fitness (aPCA) (normalised: wild type 0, dead -1); higher = more abundant; growth selection in yeast, the domain comes from the species named
Details: Homo sapiens

Abundance fitness, by site and new letter:
S8: V -0.117, D -0.081, T -0.024, M 0.003

Variants of: B2
Experiment: as above
Details: Homo sapiens

Abundance fitness: each site, then its substitutions
I68: M -0.201, S -0.491, W -0.958, Y -0.568, P -0.462, F -0.924, K -0.909, H -0.508, A -0.367, V -0.147, E -0.152, G -0.497, R -0.695, C -0.866, Q -0.554, N -0.459, T -0.345, L -0.413
N75: L -0.135, P -0.446, F -0.431, H -0.024, G -0.241, M -0.162, R -0.62, T -0.245, Q -0.046, V -0.383, Y -0.285, C -0.2, A -0.281, K -0.535, D -0.053, W -0.244
K71: N -0.157, Y -0.204, R -0.612, D -0.381, V 0.151, Q -0.086, S 0.028, E -0.21, L -0.289, G -0.281, H 0.078, I -0.122, C -0.02, P -0.555, F -0.249, W -1.09, M -0.113, A 0.022
K76: T -0.093, R -0.192, S 0.032, F -0.207, D -0.192, W -0.36, P -0.314, Q -0.032, A 0.008, Y -0.272, E -0.19, L -0.125, G 0.066, C 0.003, N -0.203, H -0.069, V -0.301
K73: A -0.119, V -0.191, R 0.011, Y -0.039, T -0.01, L -0.064, M -0.107, E 0.072, D -0.269, P -0.633

From the Human Domainome abundance scans (Beltran et al. 2025)
